The values below come from patent US20230287120A1 (ALLOGENE THERAPEUTICS, published 2023).

The chains are these.
B1: 10G1-K R2S (other)
CAR: GGGGSCPYSNPSLCGGGGSCPYSNPSLCGGGGSEVQLLESGGGLVQPGGSLRLSCAASGFTFSSYAMNWVRQAPGKGLEWVSTISGSGGSTYYADSVKGRFTISRDNSKNTLYLQMNSLRAEDTAVFYCAIDPEYYDILTGGDYWGQGTLVTVSSGGGGSGGGGSGGGGGSGGGGSDIQMTQSPSAMSASVGDRVTITCRASQGISNYLAWFQQKPGKVPKRLIYAASSLQSGVPSRFSGSGSGTEFTLTISSLQPEDFATYFCLQHDSFPLTFGGGTKVEIKTTTPAPRPPTPAPTIASQPLSLRPEACRPAAGGAVHTRGLDFACDIYIWAPLAGTCGVLLLSLVITKRGRKKLLYIFKQPFMRPVQTTQEEDGCSCRFPEEEEGGCELRVKFSRSADAPAYQQGQNQLYNELNLGRREEYDVLDKRRGRDPEMGGKPRRKNPQEGLYNELQKDKMAEAYSEIGMKGERRRGKGHDGLYQGLSTATKDTYDALHMQALPPR
notes: member of group m46; also called 10G1-K-R2S anti-DLL3 CAR with safety switch, on primary T cells
B2: 4H8 R2S (other)
CAR: GGGGSCPYSNPSLCGGGGSCPYSNPSLCGGGGSQVQLQQSGPGLVKPSQTLSLTCAISGDSVSSNSATWNWIRQSPSRGLEWLGRTYYRSKWYDDYAVSVKSRITINPDTSKNHLSLHLNSVTPEDTAVYYCAGGGLVGAPDGFDVWGQGTMVTVSSGGGGSGGGGSGGGGSGGGGSQSVLTQPPSASGTPGQRVTISCSGSSSNIGSDPVNWYQQLPGTAPKLLIYSNNQRPSGVPDRFSGSKSGTSASLAISGLQSEDEADYYCSAWDDSLNGYVFGTGTKVTVLTTTPAPRPPTPAPTIASQPLSLRPEACRPAAGGAVHTRGLDFACDIYIWAPLAGTCGVLLLSLVITKRGRKKLLYIFKQPFMRPVQTTQEEDGCSCRFPEEEEGGCELRVKFSRSADAPAYQQGQNQLYNELNLGRREEYDVLDKRRGRDPEMGGKPRRKNPQEGLYNELQKDKMAEAYSEIGMKGERRRGKGHDGLYQGLSTATKDTYDALHMQALPPR
notes: member of group m45; also called 4H8-R2S anti-DLL3 CAR with safety switch, on primary T cells
B3: 10G1-K RSR (other)
CAR: GGGGSCPYSNPSLCGGGGSEVQLLESGGGLVQPGGSLRLSCAASGFTFSSYAMNWVRQAPGKGLEWVSTISGSGGSTYYADSVKGRFTISRDNSKNTLYLQMNSLRAEDTAVFYCAIDPEYYDILTGGDYWGQGTLVTVSSGGGGSGGGGSGGGGGSGGGGSDIQMTQSPSAMSASVGDRVTITCRASQGISNYLAWFQQKPGKVPKRLIYAASSLQSGVPSRFSGSGSGTEFTLTISSLQPEDFATYFCLQHDSFPLTFGGGTKVEIKGGGGSCPYSNPSLCGGGGSTTTPAPRPPTPAPTIASQPLSLRPEACRPAAGGAVHTRGLDFACDIYIWAPLAGTCGVLLLSLVITKRGRKKLLYIFKQPFMRPVQTTQEEDGCSCRFPEEEEGGCELRVKFSRSADAPAYQQGQNQLYNELNLGRREEYDVLDKRRGRDPEMGGKPRRKNPQEGLYNELQKDKMAEAYSEIGMKGERRRGKGHDGLYQGLSTATKDTYDALHMQALPPR
notes: member of group m46; also called 10G1-K RSR anti-DLL3 CAR with safety switch, on primary T cells
B4: 2G1 RSR (other)
CAR: GGGGSCPYSNPSLCGGGGSQLQLQESGPGLVKPSETLSLTCTVSGGSISSSSYYWGWIRQPPGKGLEWIGSIYYSGNIYHNPSLKSRVSISVDTSKNQFSLRLSSVTAADTAVYYCAREIIVGATHFDYWGQGTLVTVSSGGGGSGGGGSGGGGSGGGGSAIQMTQSPSSLSASVGDRVTITCRASQGIRNDLGWYQQKPGKAPELLIYAASSLQSGVPSRFSGSGSGTDFTLTISSLQPEDFATYYCLQDYNYPLTFGPGTKVDIKGGGGSCPYSNPSLCGGGGSTTTPAPRPPTPAPTIASQPLSLRPEACRPAAGGAVHTRGLDFACDIYIWAPLAGTCGVLLLSLVITKRGRKKLLYIFKQPFMRPVQTTQEEDGCSCRFPEEEEGGCELRVKFSRSADAPAYQQGQNQLYNELNLGRREEYDVLDKRRGRDPEMGGKPRRKNPQEGLYNELQKDKMAEAYSEIGMKGERRRGKGHDGLYQGLSTATKDTYDALHMQALPPR
notes: member of group m44; also called 2G1-RSR anti-DLL3 CAR with safety switch, on primary T cells
B5: 4H8 RSR (other)
CAR: GGGGSCPYSNPSLCGGGGSQVQLQQSGPGLVKPSQTLSLTCAISGDSVSSNSATWNWIRQSPSRGLEWLGRTYYRSKWYDDYAVSVKSRITINPDTSKNHLSLHLNSVTPEDTAVYYCAGGGLVGAPDGFDVWGQGTMVTVSSGGGGSGGGGSGGGGSGGGGSQSVLTQPPSASGTPGQRVTISCSGSSSNIGSDPVNWYQQLPGTAPKLLIYSNNQRPSGVPDRFSGSKSGTSASLAISGLQSEDEADYYCSAWDDSLNGYVFGTGTKVTVLGGGGSCPYSNPSLCGGGGSTTTPAPRPPTPAPTIASQPLSLRPEACRPAAGGAVHTRGLDFACDIYIWAPLAGTCGVLLLSLVITKRGRKKLLYIFKQPFMRPVQTTQEEDGCSCRFPEEEEGGCELRVKFSRSADAPAYQQGQNQLYNELNLGRREEYDVLDKRRGRDPEMGGKPRRKNPQEGLYNELQKDKMAEAYSEIGMKGERRRGKGHDGLYQGLSTATKDTYDALHMQALPPR
notes: member of group m45; also called 4H8-RSR anti-DLL3 CAR with safety switch, on primary T cells
B6: 2G1 R2S (other)
CAR: GGGGSCPYSNPSLCGGGGSCPYSNPSLCGGGGSQLQLQESGPGLVKPSETLSLTCTVSGGSISSSSYYWGWIRQPPGKGLEWIGSIYYSGNIYHNPSLKSRVSISVDTSKNQFSLRLSSVTAADTAVYYCAREIIVGATHFDYWGQGTLVTVSSGGGGSGGGGSGGGGSGGGGSAIQMTQSPSSLSASVGDRVTITCRASQGIRNDLGWYQQKPGKAPELLIYAASSLQSGVPSRFSGSGSGTDFTLTISSLQPEDFATYYCLQDYNYPLTFGPGTKVDIKTTTPAPRPPTPAPTIASQPLSLRPEACRPAAGGAVHTRGLDFACDIYIWAPLAGTCGVLLLSLVITKRGRKKLLYIFKQPFMRPVQTTQEEDGCSCRFPEEEEGGCELRVKFSRSADAPAYQQGQNQLYNELNLGRREEYDVLDKRRGRDPEMGGKPRRKNPQEGLYNELQKDKMAEAYSEIGMKGERRRGKGHDGLYQGLSTATKDTYDALHMQALPPR
notes: member of group m44; also called 2G1-R2S anti-DLL3 CAR with safety switch, on primary T cells
B7: anti-DLL3 antibody 16H7 (antibody, V domains shown)
VH: QVQLQQWGAGLLKPSETLSLTCAVFGGSFSGDYWSWIRQPPGKGLEWIGEINHSGITSFNPSLKSRVTISVDTSKNQFSLKLSSVTAADTAVYYCARGELGIPDNWGQGTLVTVSS
VL: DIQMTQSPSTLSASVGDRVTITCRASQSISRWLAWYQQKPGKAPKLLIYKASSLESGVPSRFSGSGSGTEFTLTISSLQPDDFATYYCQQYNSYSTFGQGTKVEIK
B8: anti-DLL3 antibody 2C3 (antibody, V domains shown)
VH: QVQLQQWGGGLLKPSETLSLTCAVYGGSSSGNYWSWIRQPPGKRLEWIGEINHSGTTSYNPSLKSRVTISVDTSKNQFSLKLSSVTAADTAVYYCARGELGIADSWGQGTLVTVSS
VL: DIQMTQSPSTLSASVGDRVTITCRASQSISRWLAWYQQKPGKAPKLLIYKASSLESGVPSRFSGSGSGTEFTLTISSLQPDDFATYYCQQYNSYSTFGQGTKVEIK
B9: anti-DLL3 antibody 11H7 (antibody, V domains shown)
VH: QVQLQQWGAGLLKPSETLSLTCAVYGGSFSAYYWNWIRQPPGKGLEWIGEINHSGSTNYNPSLKSRVTISVDTSKNQFSLNLTSLTAADTAVYYCARGLDSSGWYPFDYWGQGTLVTVSS
VL: DIQMTQSPSSVSASVGDRVTITCRASQGISSWLAWYQQKPGKAPKLLIYAASSLQSGVPSRFSGSGSGTDFTLTISSLQPEDFATYYCQQADSFPFTFGPGTKVDIK
B10: anti-DLL3 antibody 4F9 (antibody, V domains shown)
VH: QVQLQQWGAGLLKPSETLSLTCAVYGGSFSGYYWTWIRQPPGKGLEWIGEITHSGSTNYNPSLKSRVSISVDTSKNQFSLKLSSVTAADTAVYYCARGEYGSGSRFDYWGQGTLVTVSS
VL: AIQMTQSPSSLSASVGDRVAITCRASQGIRDDLGWYQQKPGKAPKLLIYAASSLQSGVPSRFSGSGSDTDFTLTISSLQPEDFATYYCLQDYDYPLTFGGGTKVEIK
B11: anti-DLL3 antibody 4G9 (antibody, V domains shown)
VH: QVQLQQWGAGLLKPSETLSLTCAVYGGSFSGYYWSWIRQPPGKGLEWIGEITHSGSTNYNPSLKSRVSISVDTSKNQFSLKLSSVTAADTAVYYCARGEYGSGSRFDYWGQGTLVTVSS
VL: AIQMTQSPSSLSASVGDRVALTCRASQGIRDDLGWYQQKPGKAPKLLIYAASSLQSGVPSRFSGSGSDTDFTLTISSLQPEDFATYYCLQDYDYPLTFGGGTKVEIK
B12: anti-DLL3 antibody 9H12-K (antibody, V domains shown)
VH: QVQLVQSGAEVKKPGASVKVSCKASGYTFTGYSIHWVRQAPGQGLEWMGWINPNSGGTFYAQKFQGRVTMTRDTSISTVYMELSRLRSDDTAVYYCARDGWGDYYYYGLDVWGQGTTVTVSL
VL: DIQMTQSPSSVSASVGDRVTITCRASQDISSWLAWYQQKPGKAPKLLIYTASSLQGGVPSRFSGSGSGTDFTLTISSLQPEDLATYSCQQANVFPYTFGQGTKLEIK

The first assay has as its target T1, Flag tagged recombinant DLL3 (Adipogen) (Homo sapiens (Human), UniProt Q9NYJ7 27-492).
T1 construct: Bought reagent; also called Flag-DLL3
T1 sequence: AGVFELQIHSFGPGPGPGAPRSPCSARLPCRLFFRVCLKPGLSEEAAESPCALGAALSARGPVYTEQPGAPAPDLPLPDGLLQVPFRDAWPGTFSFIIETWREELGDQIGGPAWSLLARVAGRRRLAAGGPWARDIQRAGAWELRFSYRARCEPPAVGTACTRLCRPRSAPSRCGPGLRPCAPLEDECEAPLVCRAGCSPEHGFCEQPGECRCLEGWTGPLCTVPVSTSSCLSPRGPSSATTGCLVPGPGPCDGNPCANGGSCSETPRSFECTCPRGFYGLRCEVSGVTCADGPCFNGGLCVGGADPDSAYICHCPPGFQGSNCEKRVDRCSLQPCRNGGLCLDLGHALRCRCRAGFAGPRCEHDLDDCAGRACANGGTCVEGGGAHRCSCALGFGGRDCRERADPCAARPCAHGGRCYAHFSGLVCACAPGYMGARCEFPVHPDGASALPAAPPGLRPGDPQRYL
Kind of assay: flow cytometry, primary T cells with the CAR, Flag tagged recombinant DLL3, PE anti-Flag. In general terms: Flow cytometry measures light scatter and fluorescence of single cells or particles in a stream.
As to B1, the “Rec-DLL3+ gate, percent of live CD3+ cells” value (“Rec-DLL3+ gate, percent” below) was found to be 39.3%.

With B2, the “Rec-DLL3+ gate, percent” value came to 58.6%. Same read-out and setting: as for B3, the figure is 42.7%; as for B4, 60.7%. Regarding B5, the “Rec-DLL3+ gate, percent” value worked out at 51.9%.

As to B6, the “Rec-DLL3+ gate, percent” value is 66%.

In the next assay the target is T2, full length human DLL3 with N-terminal HA tag, expressed on CHO cells (human, UniProt Q9NYJ7 27-618).
T2 construct: also called Human DLL3 complete ECD
T2 sequence: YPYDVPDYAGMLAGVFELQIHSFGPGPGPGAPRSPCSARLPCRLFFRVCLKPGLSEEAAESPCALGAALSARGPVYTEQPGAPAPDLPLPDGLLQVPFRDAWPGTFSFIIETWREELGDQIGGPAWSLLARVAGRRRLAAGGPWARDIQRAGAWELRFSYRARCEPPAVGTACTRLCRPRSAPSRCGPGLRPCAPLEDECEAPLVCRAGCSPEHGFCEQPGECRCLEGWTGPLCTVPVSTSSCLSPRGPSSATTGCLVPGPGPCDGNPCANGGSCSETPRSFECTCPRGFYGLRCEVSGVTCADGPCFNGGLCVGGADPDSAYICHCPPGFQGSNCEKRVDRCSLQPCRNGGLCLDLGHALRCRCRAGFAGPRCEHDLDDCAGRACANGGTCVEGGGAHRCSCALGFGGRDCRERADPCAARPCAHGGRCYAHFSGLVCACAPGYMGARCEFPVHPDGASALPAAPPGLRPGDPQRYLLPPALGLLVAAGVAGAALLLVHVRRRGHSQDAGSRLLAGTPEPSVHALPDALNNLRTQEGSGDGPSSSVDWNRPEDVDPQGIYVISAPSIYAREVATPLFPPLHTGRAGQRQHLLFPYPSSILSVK
Kind of assay: flow cytometry on CHO cells with full length and truncated human DLL3; column Binds to DLL3 Domain.
Method: The samples were analyzed by flow cytometry. […] Signals from the PE channel are shown on the x-axis and counts are shown on the y-axis.
As to B7, the binding result is on record as “binds”. Same read-out and setting: as for B8, the entry is “binds”. For the molecule B9, the binding result is given as “binds”. The same measure, in the same setting: as for B10, the entry is “binds”; as for B11, “binds”.

B12: the binding result is “binds”.
